For test [1], the target named is soluble monomeric hFcRn (human) (UniProt P55899). Nature of the test: Biacore, IgGs immobilized on the same chip, soluble monomeric hFcRn; reference human IgG1.
The target in test [2] is hIgG (human IgG). As to the kind of experiment: Biacore, hIgG immobilized.

Sequence of soluble monomeric hFcRn (human) (P55899 24-297, chain 1 of 2): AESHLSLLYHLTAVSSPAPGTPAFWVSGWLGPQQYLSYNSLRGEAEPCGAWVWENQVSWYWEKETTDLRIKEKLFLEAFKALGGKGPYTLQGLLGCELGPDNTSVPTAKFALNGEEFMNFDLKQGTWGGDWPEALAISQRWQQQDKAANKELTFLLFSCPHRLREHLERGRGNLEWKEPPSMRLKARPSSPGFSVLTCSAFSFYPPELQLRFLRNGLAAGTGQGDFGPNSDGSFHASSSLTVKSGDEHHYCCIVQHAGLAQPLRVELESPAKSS
Sequence of soluble monomeric hFcRn (human) (P61769 21-119, chain 2 of 2, further chain): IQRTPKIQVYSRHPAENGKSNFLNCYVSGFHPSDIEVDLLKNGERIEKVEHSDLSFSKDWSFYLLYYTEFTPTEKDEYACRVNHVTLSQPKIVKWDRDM

rabbit IgG1 (antibody) gave a fold tighter Kd than hIgG in test [1] of 2 fold.

“soluble monomeric hFcRn (from UniProt P55899 24-297; P61769 21-119) (receptor)” had a Kd in test [2] of 2000 nM.

The record behind these values is patent US20070148164A1.
